Test results published in article PMC8761896 (2021).

B1: VRC01gl Fab with comL ('VQ' insertion at 103aL and 103bL, L104VL, E105DL) (Fab, V domains shown)
VH: not shown
VL: EIVLTQSPATLSLSPGERATLSCRASQSVSSYLAWYQQKPGQAPRLLIYDASNRATGIPARFSGSGSGTDFTLTISSLEPEDFAVYYCQQYEFFGQGTKVQVDI
B2: germline reverted VRC01 (VRC01gl) Fab (Fab, V domains shown)
VH: not shown
VL: EIVLTQSPATLSLSPGERATLSCRASQSVSSYLAWYQQKPGQAPRLLIYDASNRATGIPARFSGSGSGTDFTLTISSLEPEDFAVYYCQQYEFFGQGTKLEIK

Tests used:
eOD-GT6 [1] = assay: SPR
eOD-GT6 [2] = assay: SPR; remark: listed apart in the source

Binder	koff (eOD-GT6 [1]) [s⁻¹]	Kd (eOD-GT6 [2]) [nM]
B1	0.000642	16.4
B2	0.00073	16.2
